Numbering of substitutions follows the chain as printed.
B1: 1987-C05 HC w/hUCHT1 LC3: HC of lead antibody 1987-C05 co-expressed with the LC of anti-CD3 antibody "hUCHT1-LC3" (antibody, V domains shown)
VH: EVQLVESGGGLVQPGGSLRLSCAASGFNISDYDIHWVRQAPGKGLEWVGGIDPDDGSTDYADSVKGRFTISADTSKNTAYLQMNSLRAEDTAVYYCARDYGVFDYWGQGTLVTVSS
VL: DIQMTQSPSTLSASVGDRVTITCRASQDIRNYLNWYQQKPGKAPKLLIYYTSRLHSGVPSRFSGSGSGTEYTLTISSLQPDDFATYYCQQGNTLPWTFGGGTKVEIK
B2: SRP2196-A07 (antibody, V domains shown)
VH: EVQLVESGGGLVQPGGSLRLSCAASGFNITGYYIHWVRQAPGKGLEWVGQISPNSGSTYYADSVKGRFTISADTSKNTAYLQMSSLRAEDTAVYYCARDSRRYVRGWDYWGQGTLVTVSS
VL: QAVVTQESALTTSPGETVTLTCRSSTGAVTTSNYANWVQEKPDHLFTGLIGGTNKRAPGVPARFSGSLIGDKAALTITGAQTEDEAIYFCALWYSNLWVFGGGTKLTVL
B3: SRP2196-A09 (antibody, V domains shown)
VH: B2 VH with S57A, Y59H, S84N, V104I, G106S
VL: B2 VL
B4: SRP2196-B01 (antibody, V domains shown)
VH: B2 VH with S57Y, A79T, S84N, G106S
VL: B2 VL
B5: SRP2196-B03 (antibody, V domains shown)
VH: B2 VH with V12A, Q50Y, S57A, Y59H, S84N, G106P, W107F
VL: B2 VL
B6: SRP2196-B09 (antibody, V domains shown)
VH: B2 VH with G15E, G31E, Q50Y, S84N, G106S
VL: B2 VL
B7: SRP2196-B11 (antibody, V domains shown)
VH: B2 VH with K43R, S57Y, S84N, V104I, G106S
VL: B2 VL

Experiments:
ROR1 negative MCF7 cells = test: In vitro cell killing of ROR1 ADCs on MCF7; format: cell-based
Experimental: (§1) Anti-ROR1 antibody was conjugated to different linker-warheads described herein at different DARs and the cell killing activity of the ADCs were evaluated on ROR1 positive Ntera-2 cell and ROR1 negative MCF7 cells.
(§2) Ntera-2 or MCF7 cell at 625 cells/25 μL were seeded in a 384-well flat bottom white polystyrene plate one day before the assay start. ADCs were formulated at 2× starting concentration. Filter sterilized samples were serial diluted (1:3) under sterile conditions and added onto cells in triplicates. Plates were cultured at 37° C. in a CO2 incubator for 120 hours. For cell viability measurement, 30 microliter of Cell Titer-Glo® reagent (Promega Corp, Madison, WI) was added into each well, and plates processed as per product instructions. Relative luminescence was measured on an ENVISION® plate reader (Perkin-Elmer; Waltham, MA). Relative luminescence readings were converted to % viability using untreated cells as controls. Data was fitted with non-linear regression analysis, using log (inhibitor) vs. response, variable slope, 4-parameter fit equation using GraphPad Prism.
(§3) To evaluate if the cell killing activity of anti-ROR1 ADCs is dependent on antibody binding to ROR1 expressed on cell surface, the same linker-warheads (LP3, LP4) were conjugated to an anti-GFP antibody and the cell killing of the anti-ROR1 and anti-GFP ADCs were evaluated in cell killing assays on ROR1 positive Ntera-2 cell and ROR1 negative MCF7 cells.

[1] = system: ROR1 positive Ntera-2 cell; test: In vitro cell killing of ROR1 ADCs on Ntera-2; format: cell-based
Experimental: as §1, §2
as §3, with “cells. […]” for “cells.”

[2] = system: ROR1-positive Ntera-2 cells; test: Induction of immunogenic cell death markers (calreticulin FACS, HMGB1 ELISA); format: cell-based; conditions: 3 days treatment
Experimental: ROR1-positive Ntera-2 cells were treated with Conjugate 46 or exatecan for 3 days. Calreticulin on the cell surface was measured by FACS and HMGB1 in the cell culture medium were measured by ELISA. […] FIG. 20A and FIG. 20B illustrate calreticulin expression and HMGB1 release of Ntera-2 cells in the presence of Conjugate 46 or exatecan compared to the un-conjugated antibody and an isotype control of Conjugate 46.

[3] = system: ROR1-positive Ntera-2 cells co-cultured with PMBCS; test: Ntera-2/PBMC co-culture: target cell killing and monocyte activation; format: cell-based
Experimental: ROR1-positive Ntera-2 cells were co-cultured with PMBCS at E:T=[…] and treated with Conjugate 46 or exatecan for 3 days. Live target cell count and monocyte activation were measured by FACS. […] FIG. 21A and FIG. 21B are graphs showing the percent of live target cells and monocyte activation in Ntera-2 cells following treatment with Conjugate 46 or exatecan compared to the un-conjugated antibody and an isotype control of Conjugate 46. […] Unconjugated anti-ROR1 antibody or a non-targeted ADC had no activity. […] Viability and calreticulin surface expression were measured and presented as a percentage compared to untreated cells.

[4] = molecular target: T1, hROR1 (ROR1-extracellular domain) (Homo sapiens, UniProt Q01973); test: Biacore off-rate and kinetic analysis, hROR1 extracellular domain; format: binding; conditions: Table 7; sample ROR1 ECD; 1987-C05 HC with different LCs
T1 construct: the ROR1-frizzled domain (hROR1-Fz) or the ROR1-extracellular domain (hROR1); purchased Acro Biosystems
Experimental: (§4) Anti-Fc polyclonal antibodies were immobilized onto a CMS chip (GE Life Sciences) using amine coupling chemistry (from Amine Coupling Kit, GE Life Sciences). The immobilization steps were carried out at a flow rate of 25 μL/min in 1×HBS-EP+buffer (GE Life Sciences; 10× Stock diluted before use). The sensor surfaces were activated for 7 min with a mixture of NHS (0.05 M) and EDC (0.2 M). The Anti-Fc antibodies were injected over all 4 flow cells at a concentration of 25 ug/ml in 10 mM sodium acetate, pH 4.5, for 7 min. Ethanolamine (1 M, pH 8.5) was injected for 7 min to block any remaining activated groups. An average of 12,000 response units (RU) of capture antibody was immobilized on each flow cell.
(§5) Off-rate and kinetic binding experiments were performed at 25° C. using 1×HBS-EP+buffer. Test and control antibodies were injected over the anti-Fc surface at concentrations of 5-10 μg/mL for 12 seconds at a flow rate of 10 μL/min on flow cells 2, 3 and 4, followed by a buffer wash for 30 seconds at the same flow rate. Kinetic characterization of antibody samples was carried out with a range of antigen concentrations from 1-100 nM and 1 injection of 0 nM antigen (for example, 100, 50, 25, 6.25, 1.56 and 0 nM). After capturing ligand (antibody) on the anti-Fc surface, the analyte (hROR1, Fz or Kr domains, Acro Biosystems, Delaware) was bound for 180 seconds, followed by a 600 second dissociation phase at a flow rate of 50 μL/min. Between each ligand capture and analyte binding cycle, regeneration was carried out using 2 injections of 10 mM Glycine pH 2.0 for 30 seconds at 30 μL/min, followed by a 30 second buffer wash step.
(§6) The data was fit with the Biacore T200 Evaluation software, using a 1-1 Langmuir binding model. KD (affinity, nM) was determined as a ratio of the kinetic rate constants calculated from the fits of the association and dissociation phases.
(§7) For anti-CD3-LC-containing IgGs that had detectable ROR1-binding in ELISA (1944-A07 and 1987-C05 variants), those antibodies were further tested for binding by surface plasmon resonance (SPR). Binding kinetics were assessed to the ROR1-frizzled domain (hROR1-Fz) or the ROR1-extracellular domain (hROR1) for 1944-A07 and 1987-C05 variants, respectively. Briefly, anti-ROR1 antibodies were captured via anti-human Fc polyclonal antibodies immobilized to a CM5 chip, and ROR1 recombinant proteins were flowed across the surface to assess binding kinetics. hROR1 or hROR1-Fz domain (Acro Biosystems, Delaware) binding was tested at 100, 50, 25, 6.25, 1.5625 nM. The data was fit with the Biacore™ T200 Evaluation software, using a 1-1 Langmuir binding model. KD (affinity, nM) was determined as a ratio of the kinetic rate constants calculated from the fits of the association and dissociation phases.

[5] = Differential scanning fluorimetry (protein thermal shift; TM1/TM2); format: physicochemical; conditions: Table 11; melting temperature of the Fab domain
Experimental: A protein thermal shift assay was carried out by mixing the protein to be assayed with an environmentally sensitive dye (SYPRO Orange, Life Technologies Cat #S-6650) in a phosphate buffered solution (PBS), and monitoring the fluorescence of the mixture in real time as it underwent controlled thermal denaturation. Protein solutions between 0.2-2 mg/mL were mixed at a 1-1 volumetric ratio with a 1-500 PBS-diluted solution of SYPRO Orange (SYPRO Orange stock dye is 5000× in DMSO). 10 μL aliquots of the protein-dye mixture were dispensed in quadruplicate in a 384-well microplate (Bio-Rad Cat #MSP-3852), and the plate was sealed with an optically clear sealing film (Bio-Rad Cat #MSB-1001) and placed in a 384-well plate real-time thermocycler (Bio-Rad CFX384 Real Time System). The protein-dye mixture was heated from […], at increments of 0.1° C. per cycle (˜1.5° C. per minute), allowing 3 seconds of equilibration at each temperature before taking a fluorescence measurement. At the end of the experiment, the transition melting temperatures (TM1 and TM2) were determined using the Bio-Rad CFX manager software. TM1 represents the melting temperature of the Fc domain. TM2 represents the melting temperature of the Fab domain.
For the thermal stability of an antibody, the first melting peak (Tm1) coincides with the unfolding of the CH2 domain (FC stability), while the second melting peak (Tm2) occurs upon unfolding of the Fab domain.

ROR1 or ROR2 = test: ROR2 cross-reactivity ELISA (ROR1/ROR2 signal ratio); format: binding; conditions: Table 11; SP34 light chain
Experimental: Antibodies were tested for their ability to bind to either ROR1 or ROR2 via ELISA. Briefly, 2 μg/mL of ROR1 or ROR2 (Acro Biosystems) were coated to 384-well polystyrene plates for 1 hr at 30° C. in 0.1 M bicarbonate pH8.9 buffer before they were washed and blocked with 2% BSA in PBST (PBS, 0.1% Tween20) for 1 hr. Antibody variants were diluted to 2.5 μg/mL and further serially diluted 3-fold before 30 μL was applied to the ELISA plates for binding (1 hr at 30° C.). Antibody binding was detected via HRP-conjugated anti-human Fc antibodies (Jackson Immunoresearch) and detection with SuperSignal ELISA Pico Chemiluminescent Substrate (Pierce). Cross-reactivity was reported as a ratio of ROR1-ELISA signal over ROR2-ELISA signal at the highest dilution tested.

human ROR1-Fz = molecular target: T2, human ROR1-Fz (Homo sapiens, UniProt Q01973); test: Biacore off-rate and kinetic analysis, ROR1-Fz; format: binding; conditions: Table 11; SP34 light chain
T2 construct: Frizzled (Fz, residues 165-305); His6 (C); purchased Acro Biosystems; host or cells: HEK293
Experimental: as §4, §5, §6, §7

Row | Molecule | TM2 (° C.) [5] | ROR1/ROR2 ELISA ratio (ROR1 or ROR2) | Biacore human ROR1-Fz ka (human ROR1-Fz) | Biacore human ROR1-Fz kd (human ROR1-Fz) | further results
1 | CC[C@@]1(O)C(=O)OCc2c1cc1n(c2=O)Cc2c-1nc1cc(F)c(C)c3c1c2[C@@H](N)CC3 [exatecan] |  |  |  |  | EC50 (ROR1 negative MCF7 cells; Homo sapiens, MCF7, 120 h, read-out: MCF-7 EC50): 0.466 nM; MCF-7 Span (ROR1 negative MCF7 cells; Table 13, ROR1 negative MCF7, 120 hours): 91%; EC50 ([1]; NTERA2, 120 h, read-out: NTERA-2 EC50): 0.074 nM; NTERA-2 Span ([1]; Table 13, ROR1 positive Ntera-2, 120 hours): 98%; HMGB1 release into the cell culture medium (ELISA) [2]: induced; calreticulin translocation to the cell surface (FACS) [2]: induced; cell killing of target cells (live target cell count, FACS) ([3]; E:T=10.1, 3 days): induced potent cell killing of target cells; monocyte activation (CD86 expression) ([3]; E:T=10.1, 3 days): potently induced monocyte activation; calreticulin on the cell surface ([3]; concomitant with reduced viability): could be detected on the cell surface
2 | B1 |  |  |  |  | ka1 [4]: 566000 M⁻¹ s⁻¹; kd1 [4]: 0.000645 s⁻¹
3 | B2 | 74 °C | 16.3 | 186000 M⁻¹ s⁻¹ | 0.00064 s⁻¹ | 
4 | B3 | 75 °C | 20.1 | 150000 M⁻¹ s⁻¹ | 0.000568 s⁻¹ | 
5 | B4 | 75 °C | 17.2 | 131000 M⁻¹ s⁻¹ | 0.000401 s⁻¹ | 
6 | B5 | 71 °C | 22.8 | 124000 M⁻¹ s⁻¹ | 0.000945 s⁻¹ | 
7 | B6 | 72 °C | 27.3 | 130000 M⁻¹ s⁻¹ | 0.000427 s⁻¹ | 
8 | B7 | 74 °C | 19.1 | 137000 M⁻¹ s⁻¹ | 0.000597 s⁻¹ | 

— US12144869B2, “Anti-ROR1 antibody conjugates, compositions comprising anti ROR1 antibody conjugates, and methods of making and using anti-ROR1 antibody conjugates” (Sutro Biopharma, Inc., priority 2022, dated 2024)
